# Values quoted from earlier work in publication PMC8985225.
# pKd: −log10 of the molar value.
# Target: CaMKII kinase domain (Caenorhabditis elegans) (UniProt O62305)
substance,measurement,value
CaMKII kinase domain (from UniProt O62305),pKd,< 4.00
